In PMC9022596, “Convergent Evolution of Antibiotic Tolerance in Patients with Persistent Methicillin-Resistant Staphylococcus aureus Bacteremia” (Infection and Immunity, 2022) one finds Km and kcat data, which are given here for one substance.

Series [1] deals with CC(=O)SCCNC(=O)CCNC(=O)[C@H](O)C(C)(C)COP(=O)(O)OP(=O)(O)OC[C@H]1O[C@@H](n2cnc3c(N)ncnc32)[C@H](O)[C@@H]1OP(=O)(O)O. The experiment in a line: purified protein. The note with it: OAA fixed at 0.5 mM, 0.1 mM DTNB, 100 mM Tris-HCl pH 8.0, room temperature.
A further series has as its system O=C(O)CC(=O)C(=O)O. The experiment in a line: purified protein. Particulars: AcCoA fixed at 0.3 mM, 0.1 mM DTNB, 100 mM Tris-HCl pH 8.0, room temperature.

Take “S. aureus citrate synthase (CS, citZ) (Staphylococcus aureus subsp. aureus USA300)”: in series [1], the Km was 0.29 (95% CI 0.25 to 0.32) mM and the kcat is recorded as 41 (95% CI 39 to 43) s-1. For the same substance, in the series with O=C(O)CC(=O)C(=O)O, the Km is listed as 0.03 (95% CI 0.02 to 0.04) mM and the kcat is 30 (95% CI 28 to 32) s-1.
